Measured values taken from publication doi:10.1101/2020.04.16.045419 (bioRxiv, 2020).

Biological target: SARS-CoV-2 RBD construct consisting of residues Pro330-Gly526 fused to Venus YFP (RBD-vYFP) (SARS-CoV-2, UniProt P0DTC2)

Binder	binding result
Sb#67 (VHH) VHH: QVQLVESGGGSVQAGGSLRLSCAASGSISSITYLGWFRQAPGKEREGVAALVTYSGNTYYADSVKGRFTVSLDNAKNTVYLQMNSLKPEDTALYYCAAATWGHSWPLYNDEYWYWGQGSQVTVS	binds
Sb#69 (VHH) VHH: QVQLVESGGGSVQAGGSLRLSCAASGSISSITYLGWFRQAPGKEREGVAALNTFNGTTYYADSVKGRFTVSLDNAKNTVYLQMNSLKPEDTALYYCAAATWGYSWPLIAEYNWYWGQGTQVTVS	binds
Sb#71 (VHH) VHH: QVQLVESGGGSVQAGGSLRLSCAASGSISSITYLGWFRQAPGKEREGVAALKTQAGFTYYADSVKGRFTVSLDNAKNTVYLQMNSLKPEDTALYYCAAANWGYSWPLYEADDWYWGQGTQVTVS	binds
